The source of these data is paper PMC13200455.

In series [1] the target is T1, USE1 (purified, His-USE1) (Homo sapiens, UniProt Q9H832 1-354). Description: equilibrium binding curve, one-site fit.
Series [2] has as its target T1, USE1 (purified, His-USE1). Put plainly: ELONA titration.
Series [3] deals with T1, USE1 (purified, His-USE1). Put plainly: fluorescence/quencher displacement.
Series [4] deals with T1, USE1 (purified, His-USE1). Put plainly: Ni-NTA and streptavidin pull-down.

T1 sequence (Q9H832 whole entry): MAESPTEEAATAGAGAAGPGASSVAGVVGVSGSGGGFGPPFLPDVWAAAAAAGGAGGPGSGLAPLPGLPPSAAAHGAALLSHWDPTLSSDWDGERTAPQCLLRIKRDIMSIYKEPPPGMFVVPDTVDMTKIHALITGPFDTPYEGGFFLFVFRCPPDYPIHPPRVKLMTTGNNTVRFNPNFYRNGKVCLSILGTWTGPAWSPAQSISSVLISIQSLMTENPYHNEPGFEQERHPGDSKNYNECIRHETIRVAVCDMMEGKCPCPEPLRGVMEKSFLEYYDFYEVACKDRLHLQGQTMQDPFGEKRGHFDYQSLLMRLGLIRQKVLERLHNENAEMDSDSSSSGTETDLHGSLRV

B1: Aptamer 1 (ssDNA)
DNA: CACCTAATACGACTCACTATAGCGGATCCGATGGGTGGGGGGGTGGGTAGGATCCGTTCGGGGTTTGGCATAGGGTCTGGCTCGAACAAGCTTGC
In general, Kd refers to the constant that tells how readily two partners part at equilibrium. For B1, the Kd in series [1] was 10 ± 2.76 nM; in series [2] it was 7.2 ± 2.91 nM.

B2: Aptamer 1 fluorescence/quencher probe (mixed)
DNA 1: CACCTAATACGACTCACTATAGCGGATCCGATGGGTGGGGGGGTGGGTAGGATCCGTTCGGGGTTTGGCATAGGGTCTGGCTCGAACAAGCTTGC
DNA 2: GCAAGCTTGTTCGAGCCAG
DNA 3: CCCTATGCCAAAC
With B2, the binding result in series [3] is reported as “binds”.

B3: Aptamer 3 (ssDNA)
DNA: CACCTAATACGACTCACTATAGCGGATCCGACAGAATGCCATCACCATGTCTAGACCTATTGGCTTTGCGACTGGCTCGAACAAGCTTGC
Turning to B3, in series [1], the Kd stood at 90 ± 2.42 nM.
Take CACCTAACACGATTCACTATAGCTCGGGGTTTGGCA (ssDNA) [Aptamer 1e]: in series [4], the binding result is recorded as “binds”.

B4: Aptamer 2 (ssDNA)
DNA: CACCTAATACGACTCACTATAGCGGACAGGGCTGGTGTGGCTGGCGTCCGGCTCGAACAAGGCTGGTGTGGCTGGCGTTCTGGCTCGAACAAGCTTGC
B4 had a Kd in series [1] of 32 ± 2.54 nM.
